According to patent publication US6660837B1, “Modified protein derived from protein kinase N” (Kirin Beer Kabushiki Kaisha, priority 1995, dated 2003):

Biological target: T1, carboxyl-terminal catalytic region of PKN (Homo sapiens, UniProt Q16512)
T1 construct: made in house; host or cells: in vitro translation in reticulocyte lysate (Promega)
Assay: In vitro binding, regulatory with catalytic region of PKN (GST pull-down)
Excerpt: Truncated human PKN was made as follows; expression vector pPKN-N for amino-terminal region of PKN was made by digesting phPKN-H4 (human PKN cDNA inserted in pBluescript II SK) (Mukai, H. & Ono, Y., Biochem. Biophys. Res. Commun. 199, 897-904 (1994)) with BstEII, and filling-in both the ends with T4 DNA polymerase, and self-ligation. The resulting plasmid codes for amino acid residues of PKN from 1 to 474 in SEQ ID NO: 1. cDNA insert from this plasmid was cloned into pRc/CMV (Invitrogen Corp.). Fragment coding for the amino acids 614-942, in SEQ ID NO: 1, containing the catalytic domain of human PKN was made by PCR amplification. Expression vector pPKN-C for the carboxyl-terminal region of PKN was made by subcloning this fragment into pRc/CMV. These plasmids were linealized by cutting with XbaI, and cRNA was transcribed using T7 RNA polymerase. cRNA was translated in a […] reticulocyte lysate (Promega) in the presence of [^35S] methionine. […]
In vitro translated PKN-N or PKN-C (2.5 μl) was mixed with 5 μg of each GST-PKN-N or GST-PKN-C fusion protein or 25 μg of GST alone in 400 μl of GST binding buffer [20 mM Tris/HCl (pH 7.5), 0.5 mM DTT, 150 mM NaCl, 0.05% Triton X-100, 1 mM EDTA, 1 μg/ml leupeptin] and incubated for 1 hr at 4° C. […] Quantification of the binding reactions was carried out by a BAS 1000 bio-imaging analyzer (FUJI).

T1 sequence (Q16512 614-942): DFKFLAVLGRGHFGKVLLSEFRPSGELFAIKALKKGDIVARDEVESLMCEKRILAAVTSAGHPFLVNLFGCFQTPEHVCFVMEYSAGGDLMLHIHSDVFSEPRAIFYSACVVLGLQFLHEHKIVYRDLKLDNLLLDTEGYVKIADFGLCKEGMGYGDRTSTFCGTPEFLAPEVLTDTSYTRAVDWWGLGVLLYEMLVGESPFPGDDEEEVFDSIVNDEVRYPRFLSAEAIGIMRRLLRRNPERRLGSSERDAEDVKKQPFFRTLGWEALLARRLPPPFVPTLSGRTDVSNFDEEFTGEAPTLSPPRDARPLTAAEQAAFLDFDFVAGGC

- binding to carboxyl-terminal catalytic region of PKN in vitro: directly binds
Substance: N-terminal region of PKN: N-terminal regulatory region of human PKN: 1-540 (PKNN1) in two-hybrid and GST fusions, 1-474 when in vitro translated
